# “Also recorded” adds a separate entry of the source.
# System: Normal human epidermal keratinocytes (KC)
# Experiment: Early attachment assay, keratinocytes on silk films
# Format: cell-based
# Experimental: Normal human epidermal keratinocytes from adult skin (NHEK-ad) were purchased from Lonza. Subculture, proliferation and migration experiments were done in KGM-Gold (Lonza), containing bovine pituitary extract, whereas adhesion experiments were performed in KGM-CD (chemically defined), supplemented with CaCl2) to give 1.2 mM Ca^2+.
# Cells were harvested at passage 3-8, seeded at 20 000/cm^2 and allowed to adhere to the films or controls for 1 h in a cell incubator before gentle washing twice with pre-warmed phosphate buffered saline (PBS) followed by 10 min fixation with 96% ethanol. After three washings in water, cells were stained for 30 min with 0.1% Crystal Violet in H2O. Plates were dried after extensive washing in water.
# Attachment and morphology of cells bound to the films obtained in Example 3 were documented by taking micrographs at 2× and 10× magnification in an inverted bright field microscope. The color was then dissolved in 40 μL 20% acetic acid for 10 min, and 35 μL of the solution was transferred to a 384-well plate for optical density measurement at 595 nm (TECAN Infinite M200). Wells with cells fixed without pre-washing was used as positive control. Wells with no cells were used as blank. Experiments were run in hexaplicates and repeated three times.
# Determination of cell coverage area within a defined region (9.12 mm^2) of the micrographs (at 2× magnification) was done using the software NIS elements BR (Nikon).
# After seeing this positive effect of the introduced FNCC motif, we wanted to find out how well the FNCC-silk would compare to native, full length fibronectin, where the RGD is presented on a turn loop constrained by the structure. We therefore used fibronectin from bovine plasma (BFN) to coat cell culture wells, as well as naked cell culture treated plastic (TCT), on which KC can be cultured, as a control. Serum-free experimental conditions was chosen to avoid possible interactions between the matrices and serum proteins that potentially could give rise to increased cell adherence.
# For this purpose, we used two FN-silk variants where a linear RGD presentation is expected (FIG. 1a). The first variant (FNVS; SEQ ID NO: 15), contains the original sequence of the RGD-containing motif in fibronectin, to show the effect of the native flanking amino acids without influence of the loop conformation. In the second variant (FNSS; SEQ ID NO: 14), the two flanking cysteines in FNCC were substituted for serine, which resembles cysteine but lacks the —SH-group and is therefore unable to form disulfide bridges. The different FN-silk variants, as well as RGD-silk (SEQ ID NO: 16) and WT-silk (SEQ ID NO: 2), were evaluated with primary KC. Cells were analyzed both for early attachment (FIG. 5), spreading and formation of stress fibers (FIG. 6), and focal adhesions (FIG. 7). Early attachment assay and cellular stainings were performed as detailed in Example 6.
molecule,measurement,setting,value
"FNCC-silk: recombinant spider silk protein 4RepCT with N-terminal cysteine-looped RGD motif CTGRGDSPAC (SEQ ID NO: 10) (protein, cyclic disulfide loop; Fusion protein; DISULFID (5)..(14)) GPNSCTGRGDSPACGSASGQGGYGGLGQGGYGQGAGSSAAAAAAAAAAAAGGQGGQGQGGYGQGSGGSAAAAAAAAAAAAAAAGRGQGGYGQGSGGNAAAAAAAAAAAAAAAGQGGQGGYGRQSQGAGSAAAAAAAAAAAAAAGSGQGGYGGQGQGGYGQSSASASAAASAASTVANSVSRLSSPSAVSRVSSAVSSLVSNGQVNMAALPNIISNISSSVSASAPGASGCEVIVQALLEVITALVQIVSSSSVGYINPSAVNQITNVVANAMAQVMG",adhesion in each individual experiment,KC on tested silk films,most efficient adhesion of the tested films
same,attachment seen in micrographs,"KC, 1 h adhesion to film, crystal violet staining",clear improvement of attachment is seen on the FNCC films compared to both RGD and WT
same,cell coverage area within a defined region (9.12 mm^2),"KC, 1 h adhesion to silk films, seeding 20 000/cm2",increased attachment (i.e. area covered by cells) compared to both FNSS and FNVS; also recorded: significantly higher adhesion of KC compared to RGD-silk
same,cell coverage area within a defined region (9.12 mm^2),"KC, 1 h adhesion to silk films, seeding 20 000/cm2, listed as FNCC",significantly larger than on both WT- and RGD-silk
same,cell coverage area within a defined region (9.12 mm^2),"KC, 1 h adhesion, comparison with bovine fibronectin coating and TCT plastic, serum-free","bound equally well to the BFN and the FNCC-silk after 1 h adherence, and importantly both significantly better than TCT"
same,OD of dissolved crystal violet,"KC, 1 h adhesion, pooled data from 8 experiments (data not shown)",very similar results
same,effect of reducing agents added to the silk solution before films were casted,"KC, DTT, β-mercaptoethanol or TCEP added",no differences compared to non-reduced FNCC film were detected
